± gives the uncertainty stated by the source.

Our source for the abundance fitness values is the Human Domainome abundance scans (Beltran et al. 2025).

Sequences and labels used below:
B1: Double-stranded RNA-binding protein Staufen homolog 1, residues 183 to 249; numbered along this chain, O95793 (parent)
chain: KSEISQVFEIALKRNLPVNFEVARESGPPHMKNFVTKVSVGEFVGEGEGKSKKISKKNAAIAVLEEL

Variants of B1 are the subject of this data set. The experiment in a line: abundance fitness (aPCA) (normalised: wild type 0, dead -1); higher = more abundant; growth selection in yeast, the domain comes from the species named. The settings on record: Homo sapiens.
With KSEISQVFEIALKRNLPVNFEVARESGPPHMKNFVTKVSVGEFVGEGEGKSRKISKKNAAIAVLEEL, the abundance fitness was -0.098 ± 0.039.

For KSEISQVFEIALKRNLPVNFEVARESGPPHMKNFVTKVSVGEFVGEGEGKSPKISKKNAAIAVLEEL, the abundance fitness was -0.179 ± 0.052. With KSEISQVFEIALKRNLPVNFEVARESGPPHMKNFVTKVSVGEFVGEGEGKSAKISKKNAAIAVLEEL, the abundance fitness was -0.125 ± 0.043. In the case of KSEISQVFEIALKRNLPVNFEVARESGPPHMKNFVTKVSVGEFVGEGEGKSIKISKKNAAIAVLEEL, the abundance fitness was -0.175 ± 0.074. Then KSEISQVFEIALKRNLPVNFEVARESGPPHMKNFVTKVSVGEFVGEGEGKSNKISKKNAAIAVLEEL, with -0.622 ± 0.088; and KSEISQVFEIALKRNLPVNFEVARESGPPHMKNFVTKVSVGEFVGEGEGKSSKISKKNAAIAVLEEL, with -0.416 ± 0.049; and KSEISQVFEIALKRNLPVNFEVARESGPPHMKNFVTKVSVGEFVGEGEGKSDKISKKNAAIAVLEEL, with -0.587 ± 0.067. Regarding KSEISQVFEIALKRNLPVNFEVARESGPPHMKNFVTKVSVGEFVGEGEGKSGKISKKNAAIAVLEEL, the abundance fitness is -0.603 ± 0.046. Consider KSEISQVFEIALKRNLPVNFEVARESGPPHMKNFVTKVSVGEFVGEGEGKSQKISKKNAAIAVLEEL, for which the abundance fitness is -0.318 ± 0.064. For KSEISQVFEIALKRNLPVNFEVARESGPPHMKNFVTKVSVGEFVGEGEGKSMKISKKNAAIAVLEEL, the abundance fitness is -0.29 ± 0.058. Regarding KSEISQVFEIALKRNLPVNFEVARESGPPHMKNFVTKVSVGEFVGEGEGKSHKISKKNAAIAVLEEL, the abundance fitness is -0.518 ± 0.084. Then KSEISQVFEIALKRNLPVNFEVARESGPPHMKNFVTKVSVGEFVGEGEGKSLKISKKNAAIAVLEEL, with -0.228 ± 0.039. As to KSEISQVFEIALKRNLPVNFEVARESGPPHMKNFVTKVSVGEFVGEGEGKSTKISKKNAAIAVLEEL, the abundance fitness is -0.52 ± 0.053. With KSEISQVFEIALKRNLPVNFEVARESGPPHMKNFVTKVSVGEFVGEGEGKSCKISKKNAAIAVLEEL, the abundance fitness was -0.432 ± 0.075. Turning to KSEISQVFEIALKRNLPVNFEVARESGPPHMKNFVTKVSVGEFVGEGEGKSKKIGKKNAAIAVLEEL, the abundance fitness is -0.818 ± 0.048.

On to KSEISQVFEIALKRNLPVNFEVARESGPPHMKNFVTKVSVGEFVGEGEGKSKKIHKKNAAIAVLEEL, for which the abundance fitness was -0.895 ± 0.11.

As to KSEISQVFEIALKRNLPVNFEVARESGPPHMKNFVTKVSVGEFVGEGEGKSKKIFKKNAAIAVLEEL, the abundance fitness was -0.915 ± 0.11. For the variant KSEISQVFEIALKRNLPVNFEVARESGPPHMKNFVTKVSVGEFVGEGEGKSKKILKKNAAIAVLEEL, the abundance fitness is -0.843 ± 0.049. For KSEISQVFEIALKRNLPVNFEVARESGPPHMKNFVTKVSVGEFVGEGEGKSKKICKKNAAIAVLEEL, the abundance fitness was -0.535 ± 0.091. As for KSEISQVFEIALKRNLPVNFEVARESGPPHMKNFVTKVSVGEFVGEGEGKSKKIWKKNAAIAVLEEL, the abundance fitness is -1 ± 0.079.

Consider KSEISQVFEIALKRNLPVNFEVARESGPPHMKNFVTKVSVGEFVGEGEGKSKKITKKNAAIAVLEEL, for which the abundance fitness is -0.815 ± 0.062. Turning to KSEISQVFEIALKRNLPVNFEVARESGPPHMKNFVTKVSVGEFVGEGEGKSKKIEKKNAAIAVLEEL, the abundance fitness is -0.662 ± 0.059. For KSEISQVFEIALKRNLPVNFEVARESGPPHMKNFVTKVSVGEFVGEGEGKSKKIQKKNAAIAVLEEL, the abundance fitness is -0.769 ± 0.066. Under KSEISQVFEIALKRNLPVNFEVARESGPPHMKNFVTKVSVGEFVGEGEGKSKKINKKNAAIAVLEEL stands -0.8 ± 0.096; under KSEISQVFEIALKRNLPVNFEVARESGPPHMKNFVTKVSVGEFVGEGEGKSKKIDKKNAAIAVLEEL, -0.918 ± 0.096. For the variant KSEISQVFEIALKRNLPVNFEVARESGPPHMKNFVTKVSVGEFVGEGEGKSKKIIKKNAAIAVLEEL, the abundance fitness was -0.718 ± 0.12.

For the variant KSEISQVFEIALKRNLPVNFEVARESGPPHMKNFVTKVSVGEFVGEGEGKSKKIYKKNAAIAVLEEL, the abundance fitness is -1.07 ± 0.16.

As to KSEISQVFEIALKRNLPVNFEVARESGPPHMKNFVTKVSVGEFVGEGEGKSKKIAKKNAAIAVLEEL, the abundance fitness was -0.092 ± 0.042. With KSEISQVFEIALKRNLPVNFEVARESGPPHMKNFVTKVSVGEFVGEGEGKSKKIKKKNAAIAVLEEL, the abundance fitness was -0.889 ± 0.069. Under KSEISQVFEIALKRNLPVNFEVARESGPPHMKNFVTKVSVGEFVGEGEGKSKKIMKKNAAIAVLEEL stands -0.931 ± 0.074; under KSEISQVFEIALKRNLPVNFEVARESGPPHMKNFVTKVSVGEFVGEGEGKSKKIVKKNAAIAVLEEL, -0.865 ± 0.053; under KSEISQVFEIALKRNLPVNFEVARESGPPHMKNFVTKVSVGEFVGEGEGKYKKISKKNAAIAVLEEL, -0.657 ± 0.087.

In the case of KSEISQVFEIALKRNLPVNFEVARESGPPHMKNFVTKVSVGEFVGEGEGKTKKISKKNAAIAVLEEL, the abundance fitness was found to be 0.056 ± 0.067. In the case of KSEISQVFEIALKRNLPVNFEVARESGPPHMKNFVTKVSVGEFVGEGEGKVKKISKKNAAIAVLEEL, the abundance fitness was -0.615 ± 0.071. As for KSEISQVFEIALKRNLPVNFEVARESGPPHMKNFVTKVSVGEFVGEGEGKWKKISKKNAAIAVLEEL, the abundance fitness is -0.578 ± 0.19. Regarding KSEISQVFEIALKRNLPVNFEVARESGPPHMKNFVTKVSVGEFVGEGEGKMKKISKKNAAIAVLEEL, the abundance fitness was -0.587 ± 0.095.

For KSEISQVFEIALKRNLPVNFEVARESGPPHMKNFVTKVSVGEFVGEGEGKLKKISKKNAAIAVLEEL, the abundance fitness was -0.797 ± 0.068. For KSEISQVFEIALKRNLPVNFEVARESGPPHMKNFVTKVSVGEFVGEGEGKQKKISKKNAAIAVLEEL, the abundance fitness was -0.445 ± 0.081.

As for KSEISQVFEIALKRNLPVNFEVARESGPPHMKNFVTKVSVGEFVGEGEGKPKKISKKNAAIAVLEEL, the abundance fitness is -0.449 ± 0.074. With KSEISQVFEIALKRNLPVNFEVARESGPPHMKNFVTKVSVGEFVGEGEGKRKKISKKNAAIAVLEEL, the abundance fitness is -0.244 ± 0.07.
